Where no end group is shown, it is not given here.

The results in this text go back to patent US20120093835A1 (DECIMMUNE THERAPEUTICS, published 2012).

This assay concerns the target T1, N2 peptide (Ac-LMKNMDPLNDNV), N2 self-peptide of Mouse NMHC-IIB (592-603) (mouse (the filing says the region is …, not fully specified; printed as Ac-LMKNMDPLNDNV).
T1 peptide: Ac-LMKNMDPLNDNV
The experiment in a line: not described (in vitro and in vivo binding of hybridoma antibody to N2 peptide).

B1: IgG^12A6 (12A6 IgG), antibody produced by murine B-cell hybridoma 12A6 (ATCC PTA-9392) (antibody, V domains shown)
VH: QVTLKESGPGILQPSQTLSLTCSFSGFSLSTFGIGVGWIRQPSGKGLEWLAHIWWNDNNYYNTSLKSRLTISKDTSNNQVFLKIASVDTADTATYYCARVGGINFSMDYWGQGTSVTVSS
VL: DIVMTQSASSLAVSAGEKVTMNCKSSQSVLYSSNQKNYLAWYQQKPGQSPKLLIYWASTRESGVPDRFTGSGSGTDFTLTISSVQAEDLAVYYCHQYLSSWTFGGGTKLEIKR
notes: also called 12A6 hybridoma antibody; anti-N2 antibody (12A6)
Regarding B1, the binding result is given as “binds”.

B2: IgG^21G6 (21G6 IgG), antibody produced by murine B-cell hybridoma 21G6 (ATCC PTA-9393) (antibody, V domains shown)
VH: QVQLQESGAELVKPGASVKLSCKASGYTFTSYYMYWVKQRPGQGLEWIGGINPSNGGTNFNEKFKSKATLTVDKSSSTAYMQLSSLTSEDSAVYYCTRWGYDREWFAYWGQGTLVTVSA
VL: DIVMTQAAPSVPVTPGESVSISCRSSKSLLHSNGNTYLYWFLQRPGQSPQVLIYRMSNLASGVPDRFSGSGSGTAFTLRISRVEAEDVGVYYCMQHLEYPFTFGSGTKLEIKR
notes: also called anti-N2 mAb
In the case of B2, the binding result is “binds”.
